In test [1] the target is soluble human streptavidin-tagged RAGE (human) (UniProt Q15109). The test can be described thus: BIACORE capture, hRAGE-SA over captured antibody, 1:1 Langmuir global fit, FC3. A general note: SPR reads the build-up and loss of mass on a sensor chip optically.
The next test has as its target hLox1-Fc (human) (UniProt P78380). Kind of test: direct binding ELISA, receptor coated at 1 µg/ml, antibody at 20 µg/ml.
For a further test, the target named is rhICAM-1-Fc (human) (UniProt P05362). Described as above.
Sequence of rhICAM-1-Fc (human) (P05362 28-480): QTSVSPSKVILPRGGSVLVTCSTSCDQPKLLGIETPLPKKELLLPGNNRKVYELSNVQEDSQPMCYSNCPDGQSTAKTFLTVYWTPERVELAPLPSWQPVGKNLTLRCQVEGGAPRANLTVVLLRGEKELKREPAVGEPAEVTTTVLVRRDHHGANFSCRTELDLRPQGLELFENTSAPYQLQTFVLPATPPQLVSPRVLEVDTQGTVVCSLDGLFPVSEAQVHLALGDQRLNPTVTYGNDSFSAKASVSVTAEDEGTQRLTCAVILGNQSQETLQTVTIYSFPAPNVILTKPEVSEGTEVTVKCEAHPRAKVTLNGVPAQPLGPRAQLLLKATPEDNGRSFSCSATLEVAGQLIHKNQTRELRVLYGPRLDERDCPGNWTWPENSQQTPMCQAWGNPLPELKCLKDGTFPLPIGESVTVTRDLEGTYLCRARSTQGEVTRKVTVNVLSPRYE
Another test deals with rhVCAM-1 (human) (UniProt P19320). Described as above.
Sequence of rhVCAM-1 (human) (P19320 25-698 limits assumed): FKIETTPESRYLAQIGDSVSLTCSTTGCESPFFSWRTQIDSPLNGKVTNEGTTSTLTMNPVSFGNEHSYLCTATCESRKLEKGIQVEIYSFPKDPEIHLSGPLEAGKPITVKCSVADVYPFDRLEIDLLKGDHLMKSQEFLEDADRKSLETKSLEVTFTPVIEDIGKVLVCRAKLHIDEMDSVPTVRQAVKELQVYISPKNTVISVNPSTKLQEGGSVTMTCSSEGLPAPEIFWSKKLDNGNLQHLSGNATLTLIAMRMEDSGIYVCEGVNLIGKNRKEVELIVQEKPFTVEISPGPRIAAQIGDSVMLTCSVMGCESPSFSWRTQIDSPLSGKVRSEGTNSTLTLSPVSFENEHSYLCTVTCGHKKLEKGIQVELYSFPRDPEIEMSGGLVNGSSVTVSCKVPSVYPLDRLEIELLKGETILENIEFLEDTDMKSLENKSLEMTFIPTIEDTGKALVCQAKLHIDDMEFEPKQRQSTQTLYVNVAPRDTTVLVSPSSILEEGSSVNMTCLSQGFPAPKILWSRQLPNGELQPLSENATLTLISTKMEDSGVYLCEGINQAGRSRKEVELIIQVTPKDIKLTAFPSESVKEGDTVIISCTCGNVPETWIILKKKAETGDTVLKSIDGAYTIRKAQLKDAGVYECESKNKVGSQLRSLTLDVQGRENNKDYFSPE
Test [2] concerns the target rhTLR4 (C-terminal His tag) (human) (UniProt O00206). The description is as above.
For the next test, the target named is mLox1-Fc (mouse) (UniProt Q9EQ09). Described as above.
Sequence of mLox1-Fc (mouse) (Q9EQ09 60-363): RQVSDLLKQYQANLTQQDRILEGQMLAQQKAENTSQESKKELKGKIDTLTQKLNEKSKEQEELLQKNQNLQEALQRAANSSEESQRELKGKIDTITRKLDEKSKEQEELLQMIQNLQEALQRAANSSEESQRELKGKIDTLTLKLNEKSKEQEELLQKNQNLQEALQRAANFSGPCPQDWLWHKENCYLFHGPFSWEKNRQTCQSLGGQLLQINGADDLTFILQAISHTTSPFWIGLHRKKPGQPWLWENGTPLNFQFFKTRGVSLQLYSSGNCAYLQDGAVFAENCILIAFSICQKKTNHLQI
Test [3] concerns the target human RAGE-Fc fusion protein (human) (UniProt Q15109). The test is described as above.
For another test, the target named is rhB7-H1-Fc (human) (UniProt Q9NZQ7). The test is described as above.
Sequence of rhB7-H1-Fc (human) (Q9NZQ7 19-239): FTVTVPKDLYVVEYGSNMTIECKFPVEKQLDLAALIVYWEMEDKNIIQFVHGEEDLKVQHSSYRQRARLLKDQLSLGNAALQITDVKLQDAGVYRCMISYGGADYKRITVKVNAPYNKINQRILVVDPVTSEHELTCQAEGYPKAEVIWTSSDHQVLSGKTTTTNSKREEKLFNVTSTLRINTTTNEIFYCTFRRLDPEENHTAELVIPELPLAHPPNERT
For another test, the target named is rhNCAM-1 (human) (UniProt P13591). The test is described as above.
Sequence of rhNCAM-1 (human) (P13591 other isoform, or with tags, fused parts or gaps limits assumed): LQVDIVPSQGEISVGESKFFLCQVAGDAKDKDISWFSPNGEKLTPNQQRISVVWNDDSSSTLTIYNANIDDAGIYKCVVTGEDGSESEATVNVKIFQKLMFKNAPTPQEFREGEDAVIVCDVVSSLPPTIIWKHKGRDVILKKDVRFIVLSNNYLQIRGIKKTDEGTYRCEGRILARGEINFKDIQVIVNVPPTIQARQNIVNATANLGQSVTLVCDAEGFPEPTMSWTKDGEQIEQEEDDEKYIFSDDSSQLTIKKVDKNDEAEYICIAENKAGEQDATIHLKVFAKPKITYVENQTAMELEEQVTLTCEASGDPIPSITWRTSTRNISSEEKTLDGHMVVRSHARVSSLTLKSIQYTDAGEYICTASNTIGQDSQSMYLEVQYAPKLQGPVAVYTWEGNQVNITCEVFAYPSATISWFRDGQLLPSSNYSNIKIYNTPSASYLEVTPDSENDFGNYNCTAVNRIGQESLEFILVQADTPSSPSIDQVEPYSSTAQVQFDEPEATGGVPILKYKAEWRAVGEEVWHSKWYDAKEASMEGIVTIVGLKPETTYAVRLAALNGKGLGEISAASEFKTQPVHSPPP
Test [4] concerns the target human RAGE-Fc fusion protein (human) (UniProt Q15109). The test can be described thus: ligand competition ELISA, panel Blocks hRAGE-Fc interaction with A-beta; blocked ligand amyloid beta 1-42 peptide.
Test [5] addresses murine RAGE-strep tag fusion protein (mouse) (UniProt Q62151). The test can be described thus: BIACORE capture, SA-Mu RAGE over captured antibody, 1:1 Langmuir global fit, FC3.
The target in test [6] is cynomolgus monkey RAGE (cynomolgus monkey (Macaca fascicularis)). Kind of test: cell-based ELISA, 293 cells transfected with cynomolgus monkey RAGE.
The target of test [7] is murine RAGE-strep tag fusion protein (mouse) (UniProt Q62151). The test can be described thus: BIACORE capture, SA-Mu RAGE over captured antibody, 1:1 Langmuir global fit, FC4.
Sequence of murine RAGE-strep tag fusion protein (mouse) (Q62151 other isoform, or with tags, fused parts or gaps): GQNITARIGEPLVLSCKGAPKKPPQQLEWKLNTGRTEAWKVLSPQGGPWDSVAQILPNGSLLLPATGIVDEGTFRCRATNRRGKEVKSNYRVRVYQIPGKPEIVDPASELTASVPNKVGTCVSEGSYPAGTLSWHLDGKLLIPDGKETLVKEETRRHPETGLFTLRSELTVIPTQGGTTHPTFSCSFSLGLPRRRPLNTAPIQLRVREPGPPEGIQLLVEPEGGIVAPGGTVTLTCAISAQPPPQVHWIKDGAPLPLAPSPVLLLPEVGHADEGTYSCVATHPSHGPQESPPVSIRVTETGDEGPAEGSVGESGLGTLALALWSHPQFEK
Test [8] has as its target human RAGE-Fc fusion protein (human) (UniProt Q15109). Kind of test: antibody competition ELISA on hRAGE-Fc; competitor biotinylated XT-M4. In general terms: An ELISA detects its analyte on a solid surface through an enzyme-linked reagent.
Test [9] addresses murine RAGE-strep tag fusion protein (mouse) (UniProt Q62151). The test can be described thus: BIACORE capture, SA-Mu RAGE over captured antibody, 1:1 Langmuir global fit, FC2.
For test [10], the target named is human RAGE-Fc fusion protein (human) (UniProt Q15109). Kind of test: ligand competition ELISA, panel Blocks hRAGE-Fc interaction with S100-B; blocked ligand S100-B.
Test [11] deals with murine RAGE-strep tag fusion protein (mouse) (UniProt Q62151). The test can be described thus: BIACORE capture, SA-Mu RAGE over captured antibody, 1:1 Langmuir global fit, row Average.
The target of test [12] is human RAGE-Fc fusion protein (human) (UniProt Q15109). The test can be described thus: ligand competition ELISA, panel Blocks hRAGE-Fc interaction with HMGB1; blocked ligand HMGB1.
Test [13] deals with soluble human streptavidin-tagged RAGE (human) (UniProt Q15109). Kind of test: BIACORE capture, hRAGE-SA over captured antibody, 1:1 Langmuir global fit, row Average.
Test [14] deals with human RAGE-Fc fusion protein (human) (UniProt Q15109). The test can be described thus: ligand competition ELISA, panel Blocks hRAGE-Fc interaction with S100-A; blocked ligand S100-A.
Test [15] deals with soluble human streptavidin-tagged RAGE (human) (UniProt Q15109). The test can be described thus: BIACORE capture assay, antibody on CM5 chip, hRAGE-SA 0-100 nM in solution.
Test [16] addresses human RAGE, full length (human) (UniProt Q15109). The test can be described thus: cell-based ELISA, 293 cells transfected with human RAGE.

What is called Kd is the constant that tells how readily two partners part at equilibrium. Broadly, the EC50 is the concentration at which the effect is half-maximal.

Sequence of rhTLR4 (C-terminal His tag) (human) (O00206 24-631 limits assumed): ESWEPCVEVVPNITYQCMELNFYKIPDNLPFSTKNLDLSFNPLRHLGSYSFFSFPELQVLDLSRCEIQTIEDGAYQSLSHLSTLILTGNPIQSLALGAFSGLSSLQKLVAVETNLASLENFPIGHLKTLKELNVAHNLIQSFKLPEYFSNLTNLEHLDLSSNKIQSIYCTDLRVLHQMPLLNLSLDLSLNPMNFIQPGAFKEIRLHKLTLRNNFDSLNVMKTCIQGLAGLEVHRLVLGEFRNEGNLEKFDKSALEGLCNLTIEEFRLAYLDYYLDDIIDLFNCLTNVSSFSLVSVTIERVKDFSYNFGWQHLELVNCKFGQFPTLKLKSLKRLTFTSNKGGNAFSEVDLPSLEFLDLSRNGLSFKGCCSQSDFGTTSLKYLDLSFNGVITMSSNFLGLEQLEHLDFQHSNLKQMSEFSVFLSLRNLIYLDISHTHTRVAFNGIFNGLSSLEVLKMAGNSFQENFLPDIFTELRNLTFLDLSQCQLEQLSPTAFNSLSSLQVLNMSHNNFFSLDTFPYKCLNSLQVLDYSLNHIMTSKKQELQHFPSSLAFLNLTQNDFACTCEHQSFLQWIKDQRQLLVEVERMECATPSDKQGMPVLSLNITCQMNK

As for “chimeric antibody XT-M4 (from UniProt P01857 1-330)”, the Kd in test [1] was 7.33 nM; in [5], 1.9 nM; in [7], 2 nM; in test [9] it was 1.9 nM; in [11], 1.9 nM; in [13], 7.91 nM. This substance also displayed a Kd in test [15] of 5.66 nM. Besides, the OD450 in the test with hLox1-Fc (human) was found to be 0.017; in the test with rhICAM-1-Fc (human), 0.004; in the test with rhVCAM-1 (human), 0.004; in test [2], 0; with mLox1-Fc (mouse) it was 0.01; in test [3], 3.8. In addition, the values for the OD450 in the test with rhB7-H1-Fc (human) and with rhNCAM-1 (human) were 0.003 and 0.006, respectively. For the same substance, the IC50 (read off the curve) in test [4] worked out at 0.2 µg/mL; in test [8], 0.4 µg/mL; in [10], 0.08 µg/mL; in test [12] it was 0.1 µg/mL; in [14] it was 0.09 µg/mL. The EC50 in test [6] worked out at 1.66 nM; in test [16], 0.8 nM. In addition, the Ka in [15] is 1.77e+08 M⁻¹.

Values taken from patent US20070286858A1.
